Key:
myc-tagged CARD-12 = target: T1, myc-tagged CARD-12 (human, UniProt Q9NPP4 1-1024); experiment: co-immunoprecipitation from 293T lysates (IP anti-T7, blot anti-myc)
T1 construct: Transiently overexpressed in 293T cells
Experimental: FIGS. 10A-10C depict the results of co-immunopreciptation analysis. FIG. 10A: After 24 hrs, extracts were prepared and immunoprecipitated (IP) with a monoclonal antibody to the T7 epitope. The immunoprecipitates were analyzed by SDS-PAGE and immunoblotted with an anti-myc polyclonal antibody. FIG. 10B: The cellular extracts were also immunoblotted (WB) with anti-T7 antibody. FIG. 10C: Extracts were also immunoprecipitated with a monoclonal antibody to myc, followed by WB with an anti-myc polyclonal antibody.
An additional mechanism by which CARD-12 may cause cell death is by the activation of upstream caspases via a CARD/CARD interaction. The proform of caspase-1 and caspase-9 both contain an N-terminal CARD. Therefore, caspase-1 and caspase-9 were investigated as possible CARD-12 signaling partners following transient overexpression in cells. Briefly, 293T cells transfected with plasmids were lysed in 50 mM Tris, pH 8.0, 120 mM NaCl, 1 mM EDTA, 0.5% Nonidet P-40 buffer and incubated with either a T7 (Sigma) or myc monoclonal antibody (SantaCruz Biotechnology, Inc.). The immune complexes were precipitated with protein G-Sepharose (Amersham Pharmacia Bio), washed extensively, and then subjected to SDS-polyacrylamide gel electrophoresis and immunoblotted with polyclonal antibody to myc (SantaCruz). […]

[1] = target: CARD domain of CARD-5 (ASC) fused to the DNA-binding domain of pCMV-BD (UniProt Q9ULZ3 107-195); experiment: cell-based or functional assay
Chain of CARD domain of CARD-5 (ASC) fused to the DNA-binding domain of pCMV-BD (Q9ULZ3 whole entry, the tested form may be a part): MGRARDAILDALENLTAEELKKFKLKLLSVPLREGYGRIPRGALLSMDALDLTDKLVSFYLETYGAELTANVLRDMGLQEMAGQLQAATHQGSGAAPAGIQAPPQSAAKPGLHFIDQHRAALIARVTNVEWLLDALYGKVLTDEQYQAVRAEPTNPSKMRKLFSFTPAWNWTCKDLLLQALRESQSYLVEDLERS

[2] = target: CARD domain of CARD-12 fused to the DNA-binding domain of pCMV-BD (self-association partner) (human); experiment: cell-based or functional assay

binding result (myc-tagged CARD-12)	relative luciferase activity (mammalian two-hybrid) [1]	relative luciferase activity (mammalian two-hybrid) [2]	Binder
no binding			T7-tagged procaspase-9 (enzyme, UniProt P55211 1-416, looked up, not shown: small tags and cut ends, Transiently overexpressed in 293T cells) MDEADRRLLRRCRLRLVEELQVDQLWDALLSRELFRPHMIEDIQRAGSGSRRDQARQLIIDLETRGSQALPLFISCLEDTGQDMLASFLRTNRQAAKLSKPTLENLTPVVLRPEIRKPEVLRPETPRPVDIGSGGFGDVGALESLRGNADLAYILSMEPCGHCLIINNVNFCRESGLRTRTGSNIDCEKLRRRFSSLHFMVEVKGDLTAKKMVLALLELAQQDHGALDCCVVVILSHGCQASHLQFPGAVYGTDGCPVSVEKIVNIFNGTSCPSLGGKPKLFFIQACGGEQKDHGFEVASTSPEDESPGSNPEPDATPFQEGLRTFDQLDAISSLPTPSDIFVSYSTFPGFVSWRDPKSGSWYVETLDDIFEQWAHSEDLQSLLLRVANAVSVKGIYKQMPGCFNFLRKKLFFKTS
	10 fold	30 fold	CARD domain of CARD-12 (residues 1-83) fused to the activation domain of pCMV-AD (plasmid pCMV-CARD-12-CARD/AD) (other, not shown: large carriers) MNFIKDNSRALIQRMGMTVIKQITDDLFVWNVLNREEVNIICCEKVEQDAARGIIHMILKKGSESCNLFLKSLKEWNYPLFQD

— patent US20030190679A1 (Takeda / Millennium, published 2003)
